# According to patent publication US8465945B2, “Method for production and use of mite group 1 proteins” (Merck Patent GmbH, priority 1999, dated 2013):
# How the values were obtained:
# [1] = tested on: IgE from pooled mite-allergic human sera; assay: Monoclonal Capture ELISA (Example 8B, Table 7); assay type: binding
# Experimental: (§1) Assays were carried out as follows. A microtiter plate as described in Example 5 was coated overnight at 4° C. with 100 ng/well of anti-Der f 1 protein monoclonal antibody 6A8, denoted herein as anti-Der f 1 MAb 6A8, provided by Dr. Martin Chapman. The plate was washed in the manner described above. The following proteins were then added to wells, having been diluted in Assay Buffer in a 2-fold dilution series, from 0.75 to 50 ng/well: Heska native Derf1, P. pastoris-expressed PDerf1303b, and E. coli-expressed PDerf1303c. After incubation for 1 hour at room temperature, plates were washed as described in Example 5. Then 100 μl per well of a 1:1000 dilution in Assay Buffer of biotinylated anti-Der f 1 monoclonal antibody 4C1, also denoted anti-Der f 1 MAb 4C1, provided by Dr. Martin Chapman, was added for 1 hour at room temperature. Plates were washed, streptavidin-HRP conjugate was added, and plates were developed as described in Example 5.
# B. The Der f 1 proteins described in Example 8B were reacted as described in Example 6 with a pool of serum samples collected from 16 mite-allergic human patients.
# [2] = tested on: IgE from mite-allergic or normal human sera; assay: ELISA, binding of IgE from human sera to coated Der f 1 proteins or mite extracts, detected with FcεR1α-biotin
# [3] = tested on: anti-Der f 1 MAb 6A8 (capture) and anti-Der f 1 MAb 4C1 (detection); assay: Monoclonal Capture ELISA; assay type: binding
# Experimental: as §1
# [4] = tested on: IgE from mite-allergic dog sera; assay: ELISA, binding of IgE from dog sera to coated Der f 1 proteins or mite extracts, detected with FcεR1α-biotin
# Experimental: Native or recombinant Der f 1 proteins in 100 μl CBC buffer (50 mM sodium carbonate, pH 9.6) were coated onto wells (100 ng per well) of Immulon II microtiter plates (available from Dynex Technologies, Chantilly, Va.) by incubation at 4° C., covered, overnight. Excess fluid was removed and wells were blocked with 200 μl Assay Buffer (4% fetal calf serum (available from Summit Laboratories, Fort Collins, Colo.) in phosphate buffered saline (PBS, recipe in Sambrook, ibid.), plus 0.05% Tween-20 (available from Sigma, St. Louis, Mo.)) for one hour at room temperature. Plates were then washed for 4 cycles on an automatic plate washer (Ultrawash, available from Dynatech Laboratories) using PBS with 0.05% Tween-20. […] Control wells were treated identically except that no serum was added. Plates were then washed as described above. Biotinylated human IgE receptor alpha chain (FcεR1α-biotin) (100 μl of 1.3 ng/ml) prepared as described in U.S. Pat. No. 5,945,294, ibid., was added and incubated for one hour at room temperature. After this incubation, plates were washed as described above. Streptavidin-horseradish peroxidase conjugate (0.5 mg/ml, available from KPL Labs, Gaithersburg, Md.) was added at a 1:5000 dilution in Assay Buffer for one hour at room temperature, after which plates were washed as described above. TMB Peroxidase substrate system, 2 part (available from KPL Labs, #0-76-00), added at 100 μl per well, was used according to the manufacturer's directions. The color reaction was allowed to proceed until good color development was reached (about 10-15 min); then the reaction was stopped with 100 μl per well of 1 M phosphoric acid. Bound IgE was determined by measuring absorbance (Optical Density, or OD) at 450 nm (nanometers) using an ELISA plate reader (such as Spectramax”, Molecular Devices, Sunnyvale, Calif.). Background OD readings in the control wells were subtracted from all numbers. Results are reported in Tables 1, 2 and 3 as OD multiplied by 1000. OD numbers greater than 100 are considered to be positive for a reaction with IgE. P. pastoris-expressed proteins are denoted in the Tables as Pichia expressed proteins.
molecule,measurement,setting,value
"PDerf1303d: P. pastoris HCY288-expressed Der f 1 lacking N-glycosylation site, asparagine 133 replaced by glutamine (SEQ ID NO:38) (protein, listed as Dermatophagoides farinae) RPASIKTFEEFKKAFNKNYATVEEEEVARKNFLESLKYVEANKGAINHLSDLSLDEFKNRYLMSAEAFEQLKTQFDLNAETSACRINSVNVPSELDLRSLRTVTPIRMQGGCGSCWAFSGVAATESAYLAYRQTSLDLSEQELVDCASQHGCHGDTIPRGIEYIQQNGVVEERSYPYVAREQRCRRPNSQHYGISNYCQIYPPDVKQIREALTQTHTAIAVIIGIKDLRAFQHYDGRTIIQHDNGYQPNYHAVNIVGYGSTQGDDYWIVRNSWDTTWGDSGYGYFQAGNNLMMIEQYPYVVIM","OD, Monoclonal Capture ELISA",[1]; 0.39 ng protein per well,1380 OD
same,"OD, Monoclonal Capture ELISA",[1]; 0.78 ng protein per well,1963 OD
same,"OD, Monoclonal Capture ELISA",[1]; 1.55 ng protein per well,2626 OD
same,"OD, Monoclonal Capture ELISA",[1]; 3.1 ng protein per well,2913 OD
same,"OD, Monoclonal Capture ELISA",[1]; 6.25 ng protein per well,2991 OD
same,"OD, Monoclonal Capture ELISA",[1]; 12.5 ng protein per well,3037 OD
same,"OD, Monoclonal Capture ELISA",[1]; 25 ng protein per well,3007 OD
same,"OD, bound IgE","[2]; Table 6, pool of sera from 16 mite-allergic human patients, 6.2 ng protein per well",88 OD
same,"OD, bound IgE","[2]; Table 6, pool of sera from 16 mite-allergic human patients, 12.5 ng protein per well",347 OD
same,"OD, bound IgE","[2]; Table 6, pool of sera from 16 mite-allergic human patients, 25 ng protein per well",591 OD
same,"OD, bound IgE","[2]; Table 6, pool of sera from 16 mite-allergic human patients, 50 ng protein per well",779 OD
same,"OD, bound IgE","[2]; Table 6, pool of sera from 16 mite-allergic human patients, 100 ng protein per well",1097 OD
same,"OD, bound IgE","[2]; Table 6, pool of sera from 16 mite-allergic human patients, 200 ng protein per well",1448 OD
"Heska native Derf1: Native purified Der f 1 protein, purified as described in U.S. Ser. No. 09/292,225 (protein) TSACRINSVNVPSELDLRSLRTVTPIRMQGGCGSCWAFSGVAATESAYLAYRNTSLDLSEQELVDCASQHGCHGDTIPRGIEYIQQNGVVEERSYPYVAREQRCRRPNSQHYGISNYCQIYPPDVKQIREALTQTHTAIAVIIGIKDLRAFQHYDGRTIIQHDNGYQPNYHAVNIVGYGSTQGDDYWIVRNSWDTTWGDSGYGYFQAGNNLMMIEQYPYVVIM","OD, protein captured by MAb 6A8 and detected by MAb 4C1",[3]; 0.75 ng protein per well,1740 OD
same,"OD, protein captured by MAb 6A8 and detected by MAb 4C1",[3]; 1.5 ng protein per well,2043 OD
same,"OD, protein captured by MAb 6A8 and detected by MAb 4C1",[3]; 2.5 ng protein per well,2291 OD
same,"OD, protein captured by MAb 6A8 and detected by MAb 4C1",[3]; 3.1 ng protein per well,2219 OD
same,"OD, protein captured by MAb 6A8 and detected by MAb 4C1",[3]; 6.25 ng protein per well,2197 OD
same,"OD, protein captured by MAb 6A8 and detected by MAb 4C1",[3]; 25 ng protein per well,2142 OD
same,"OD, protein captured by MAb 6A8 and detected by MAb 4C1",[3]; 50 ng protein per well,2183 OD
same,"OD, bound IgE","[4]; Assay Number 1, serum dog pool",750 OD multiplied by 1000
same,"OD, bound IgE","[4]; Assay Number 1, serum dog-1",3 OD multiplied by 1000
same,"OD, bound IgE","[4]; Assay Number 1, serum dog-2",2245 OD multiplied by 1000
same,"OD, bound IgE","[4]; Assay Number 1, serum dog-3",2839 OD multiplied by 1000
same,"OD, bound IgE","[4]; Assay Number 2, dog sera pool A 146",449 OD multiplied by 1000
same,"OD, bound IgE","[4]; Assay Number 2, dog sera pool KS338",101 OD multiplied by 1000
same,"OD, bound IgE","[2]; Assay Number 1, serum human 1916",51 OD multiplied by 1000
same,"OD, bound IgE","[2]; Assay Number 1, serum human3848",3123 OD multiplied by 1000
same,"OD, bound IgE","[2]; Assay Number 1, serum human 3958",3368 OD multiplied by 1000
same,"OD, bound IgE","[2]; Assay Number 1, serum human 3960",2279 OD multiplied by 1000
same,"OD, bound IgE","[2]; Assay Number 1, serum human 3961",1479 OD multiplied by 1000
same,"OD, bound IgE","[2]; Assay Number 1, serum human 3987",3741 OD multiplied by 1000
same,"OD, bound IgE","[2]; Assay Number 1, serum human 4289",777 OD multiplied by 1000
same,"OD, bound IgE","[2]; Assay Number 1, serum human 4467",1302 OD multiplied by 1000
same,"OD, bound IgE","[2]; Assay Number 1, serum human 5207",3051 OD multiplied by 1000
same,"OD, bound IgE","[2]; Assay Number 1, serum human pool",1732 OD multiplied by 1000
same,"OD, bound IgE","[2]; Assay Number 2, serum Heska human B",0 OD multiplied by 1000
same,"OD, bound IgE","[2]; Assay Number 2, serum Heska human C",0 OD multiplied by 1000
same,"OD, bound IgE","[2]; Assay Number 2, serum Heska human D",0 OD multiplied by 1000
same,"OD, bound IgE","[2]; Assay Number 2, serum Heska human E",19 OD multiplied by 1000
same,"OD, bound IgE","[2]; Assay Number 2, serum Heska human F",0 OD multiplied by 1000
same,"OD, bound IgE","[2]; Assay Number 2, serum Heska human G",1 OD multiplied by 1000
same,"OD, bound IgE","[2]; Assay Number 2, serum Heska human H",0 OD multiplied by 1000
same,"OD, bound IgE","[2]; Assay Number 2, serum Heska human I",1 OD multiplied by 1000
same,"OD, bound IgE","[2]; Assay Number 2, serum Heska human J",1 OD multiplied by 1000
same,"OD, bound IgE","[2]; Assay Number 2, serum Heska human K",0 OD multiplied by 1000
same,"OD, bound IgE","[2]; Assay Number 2, serum Heska human L",0 OD multiplied by 1000
same,"OD, bound IgE","[2]; Assay Number 2, serum Heska human M",51 OD multiplied by 1000
same,"OD, bound IgE","[2]; Assay Number 2, serum Heska human N",885 OD multiplied by 1000
same,"OD, bound IgE","[2]; Assay Number 2, serum Heska human O",0 OD multiplied by 1000
same,"OD, bound IgE","[2]; Assay Number 2, serum Heska human P",0 OD multiplied by 1000
same,"OD, bound IgE","[2]; Assay Number 2, serum Heska human Q",0 OD multiplied by 1000
same,"OD, bound IgE","[2]; Assay Number 2, serum Heska human R",1 OD multiplied by 1000
same,"OD, bound IgE","[2]; Assay Number 2, serum human 1916",62 OD multiplied by 1000
same,"OD, bound IgE","[2]; Assay Number 2, serum human 3848",2362 OD multiplied by 1000
same,"OD, bound IgE","[2]; Assay Number 2, serum human 3958",2235 OD multiplied by 1000
same,"OD, bound IgE","[2]; Assay Number 2, serum human 3960",1308 OD multiplied by 1000
same,"OD, bound IgE","[2]; Assay Number 2, serum human 3961",784 OD multiplied by 1000
same,"OD, bound IgE","[2]; Assay Number 2, serum human 3987",2664 OD multiplied by 1000
same,"OD, bound IgE","[2]; Assay Number 2, serum human 4289",589 OD multiplied by 1000
same,"OD, bound IgE","[2]; Assay Number 2, serum human 4467",1051 OD multiplied by 1000
same,"OD, bound IgE","[2]; Assay Number 2, serum human 5207",2746 OD multiplied by 1000
same,"OD, bound IgE","[2]; Assay Number 2, serum human pool",2599 OD multiplied by 1000
